Test results from the supplement of paper PMC12764529.
± gives the half width of the 95% confidence interval.

Tests used:
[1] = folding stability dG unfold from chymotrypsin proteolysis; higher = more stable
Procedure, shortened: (§1)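 Unfolding free energy was derived, per protease or combined, against a sequence-predicted unfolded-state K50 and a shared folded-state K50, starting from K50 inferred by Bayesian fitting of sequencing counts. Digestion with trypsin and chymotrypsin was carried out on designed mini-proteins under 80 residues without cysteine in a PA-tagged cDNA display construct. Only designs with AlphaFold2 dimer inter-PAE above 15 were kept.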

[2] = folding stability dG unfold (combined trypsin and chymotrypsin); higher = more stable
Procedure, shortened: as §1

Sequence | folding stability dG unfold [1] | folding stability dG unfold [2]
SAGRPPEALREEVSEETITIPVPSTDSDEAPALTTKVTKTTTRLPTPVTTTTTTTTYPDGTTTTTTTAASAG [r5_580_JUSTAS] | 0.285 ± 0.033 kcal/mol | -0.061 ± 0.11 kcal/mol
SAGSETVLKTTTEPRTEPDSEVETTTEVYPDGKRITRTTTTYPNPGEGNPATPVTTTTTTVTELPPNELSAG [r5_224_JUSTAS] | -0.378 ± 0.12 kcal/mol | < -1 kcal/mol
SAGSIQVSESALAPGYSLYTITIPYQSIEDAKKLVEEIVSKRFSVPAEIIETKVDPNTGVVTFTVKVPPSAG [r5_810_JUSTAS] | 5.31 ± 0.088 kcal/mol | 5.32 ± 0.15 kcal/mol
SAGSSRIIFYPENNTYLIETPEGSFTLPETVTTTTPAPTGENPDRTVPRPTTTYVATELSLEEAEKLLSSAG [r5_234_JUSTAS] | 0.367 ± 0.051 kcal/mol | -0.149 ± 0.076 kcal/mol
SAGSVTVEVFGPGRLLATYTLDDTTTTVAVPPEPVRVRIRSPGDDAEATADADPATGVVTVTVPADLGLSAG [r5_469_JUSTAS] | 0.679 ± 0.05 kcal/mol | 0.165 ± 0.064 kcal/mol
SAGTITKLKTEYDPKGYRFIELLDPLPNDPSVPAEALAQEIKEKYGAEKAEIKPVPGTGAIRILLIKPESAG [r14_228_JUSTAS] | -0.396 ± 0.48 kcal/mol | -0.67 ± 0.42 kcal/mol
SAGTVFVAHSDDRPPVAAPETGTVTLPAPDGARVTLRRLPDGTAVVTPDGGESRTLGPGARVEVRLLPASAG [r5_869_TrMRF] | -0.156 ± 0.37 kcal/mol | < -1 kcal/mol
SAGVEPTPDGKWRIEINPEEGHIRVRMKNGEPHEIPFPEGSLDDFADEIAEKMGFPPDKPFKIDEIEIWSAG [r5_923_TrROS] | -0.0363 ± 0.21 kcal/mol | -0.273 ± 0.19 kcal/mol
SAGVKIKWEPIDRDPKNGHVYYSITIKVPKDGKPLDEIPIGMYQFDNDDGKWEPMPEEDIKQQAKDLLNSAG [r5_909_TrROS] | 0.0649 ± 0.34 kcal/mol | -0.415 ± 0.52 kcal/mol
SAKVHIPFPPGMPPKQMRNMVKNALREQQNNGKEPDKITIHMPPDQRPIKDWLKEAGLPPDNVKWEPWPSAG [r14_589_TrROS] | -0.422 ± 0.55 kcal/mol | < -1 kcal/mol
SALEPGEWRKVTAEIPLPGGPLKLEIYEWPSNGHYYADIRNPGNGRPVEIPFPFDTPDDAVDEAKDFIRSAG [r14_65_TrROS] | 0.101 ± 0.4 kcal/mol | -0.625 ± 0.63 kcal/mol
SAMIVTEKEDPATNTTLVTTTEIYPDSITVTTTTITKSGEILTESPSTTTIPLGSPLGPENKAKNIALSSAG [r14_930_JUSTAS] | -0.184 ± 0.14 kcal/mol | < -1 kcal/mol
SAMKKLRELLEKEFPDRPIKSVKNLGEKLAPDGTPYYVVELTFPDGSTITVTITSEEKPEILEAIEEEESAG [r14_143_JUSTAS] | 3.9 ± 0.22 kcal/mol | 4.03 ± 0.27 kcal/mol
SAMKTYTFEFTLTVPPDTPLEEVKAKVKEKVKAELKKLGIPLPETAKIEIKKVKEEGNKIYFKVTVTNKSAG [r14_735_JUSTAS] | 4.06 ± 0.057 kcal/mol | 4.16 ± 0.14 kcal/mol
SAMTPDELADELAKKFHQQNQENGYEIPDVDIKYDPEEDRVTVEFEMRNKNTGRPMRPTFQIDDPEDILSAG [r14_409_TrROS] | -0.247 ± 0.33 kcal/mol | < -1 kcal/mol
SAPAVETRSVTTEPVASPTPRVPYTLVVESVTTTAVDAAGTPVATSVSLKEVRYGDGTISRTFSATPTASAG [r14_848_JUSTAS] | -0.953 ± 0.29 kcal/mol | < -1 kcal/mol
SAPEIVVERFEDGSRRLGFTIPGYEVLEEVDVPANETEKTAVFTLPDRVLVFTFREEGIEPRPVPLDELSAG [r14_403_TrMRF] | -0.201 ± 0.3 kcal/mol | -0.598 ± 0.25 kcal/mol

Sequence | folding stability dG unfold [1] | folding stability dG unfold [2]
SAPPATLTVDSVEFHPETGTLTIPFSHPAGPTASVLFRNEDGEVLEIPGTVPTATIRAEPNMRLERVFLGSA [r9_113_TrMRF] | 0.499 ± 0.1 kcal/mol | -0.0386 ± 0.081 kcal/mol
SASLTPVGPGPDSVVTADPSTGKLYRLEPADGRLTVTTTTFAPGPAAPAPTTTTLPLSPEEAAALRALLSAG [r14_245_JUSTAS] | -0.304 ± 0.26 kcal/mol | < -1 kcal/mol
SGGMTPEQMIRHVLREARANNPGKKIEISWNSIQKNFPHPMSPEEIKKELKEEDGIKDVTIQPIPPNDPFSA [r9_738_TrROS] | -0.315 ± 0.29 kcal/mol | < -1 kcal/mol
SGMPPVSVSSIEPVSVSPDGTSRTFRAPLTTPSGEPVTYTGPVSEILKRVEEEGWGPTASAPGGLVEVRDSA [r9_1078_JUSTAS] | -0.368 ± 0.12 kcal/mol | -0.583 ± 0.1 kcal/mol
SGMTPVSVSRKFTSTFPNGTPVSDPGGLVVLVPEPPPPPYVHLSPEEVEAARAAAAAAGSPLTEADIRASSA [r9_487_JUSTAS] | 0.164 ± 0.21 kcal/mol | -0.642 ± 0.42 kcal/mol
SGRIKDVIMERDDNGGGNIMIMKLGNGEMEHIPPGEKLEIPLPPDDTLYLMVFDPNDGEPIETEEIKVDDSA [r9_209_TrROS] | -0.367 ± 0.35 kcal/mol | < -1 kcal/mol
SMDVVTEVTVKLPYRDASHHHHLNIKVTRTISSKDPSLSPEALPPEVLAEEAKKEAIEELKKKGIPEEFLSA [r9_516_JUSTAS] | -0.346 ± 0.64 kcal/mol | < -1 kcal/mol
SMEFTIEVYDPVTPKVETFPVKAPKEKVIEKIREFQEKGGKVVLSGLPEEKVKEIVEEAGVDVEIVPVEKSA [r9_1207_TrMRF] | 0.54 ± 0.09 kcal/mol | 0.283 ± 0.19 kcal/mol
SMKTYTFTDPNNGIKYTITIDPNKPLVNVTVTKPGGEPVETQTVSVAPGKINLSLNVDGKPISISISLPESA [r9_385_JUSTAS] | 5.29 ± 0.15 kcal/mol | 5.37 ± 0.2 kcal/mol
SMSIKRARLRPEEIEAEIAALEAQGLRVKREPLEVTPVEVPLKLPDGTPRRVEVVEVVFRLELTPLDQPPSA [r9_991_JUSTAS] | -0.433 ± 0.48 kcal/mol | < -1 kcal/mol
SMTPEVSVITLRPVEVKKVGEVPVVTLEVTEVENAPEELLEKVKAGAKLTIEVPKDEPIEPDEEIEVVLPSA [r9_557_JUSTAS] | 0.146 ± 0.1 kcal/mol | -0.706 ± 0.27 kcal/mol
SMVYVPEKNVIIEESEKLFYDPNKPRDLRVKTTPVIEVSPSGEKKTLKTEITFYNPEGNPIFTEESEIEISA [r9_383_JUSTAS] | -0.399 ± 0.22 kcal/mol | < -1 kcal/mol
SSAEEIARRLAEELNLDRVEVRVERLRLEPAEAPEEVRVVRPAPPPPPVTEEERRRRPEERRRRLSEEELSA [r9_724_TrROS_Hall] | -0.262 ± 0.32 kcal/mol | < -1 kcal/mol
SSPVVVSESTDPNSSTKTITVTLPPNARVTLTLPGEPVETRPQPDATATLTTGPDALDITIEPLPPGVPLSA [r9_221_JUSTAS] | 0.474 ± 0.1 kcal/mol | -0.714 ± 0.24 kcal/mol
SSTTPYGDKTVVTTTTPVPGAGKELVTTTTYTFTPDPNSASTSTTATTTTTVTPLPEEAPTPEAVALRRASA [r9_363_JUSTAS] | -0.937 ± 0.44 kcal/mol | < -1 kcal/mol
SVIIKGPGPETYYVEKFGNETKITKFSTEGDKFYKKEYYETFDPNNKTVSRKENEVEEIEPEEEKPFSELSA [r9_83_JUSTAS] | 0.546 ± 0.11 kcal/mol | 0.0208 ± 0.11 kcal/mol
VSPLDLEGPGGLPPSELRRVSVLREETDPSVGEKRLSPVGTLFVPKDTSPEEVEAIIAARPDITRVEVRLLS [r1_132_JUSTAS] | 0.502 ± 0.067 kcal/mol | 0.0944 ± 0.082 kcal/mol
